Source: US20100311955A1 (SHANHAI GUOJIAN BIO TECH INSTITUTE, published 2010)
Where a chain is given by its changes, count along the chain named. “And” between values parts separate entries of the source, which are not always exact repeats. Equal entries are not always repeated. One block for each molecule: values may come before it.

How the values were obtained:
[1] = biological target: human CD34 (antigen on human myeloid leukemia cell KG-1a) (human) (UniProt P28906); assay: flow cytometry competition on KG-1a cells, competitor FITC-My10; single test
[2] = biological target: human CD34 (antigen on human myeloid leukemia cell KG-1a) (human) (UniProt P28906); assay: flow cytometry competition on KG-1a cells, competitor FITC-My10; mean of 3 tests
[3] = biological target: T1, human CD34 (antigen on human myeloid leukemia cell KG-1a) (human, UniProt P28906 32-385); assay: flow cytometry competition on KG-1a cells, competitor FITC-4C8
T1 construct: whole, on cells; Target in all assays is CD34 on KG-1a cells, which highly express it; also called antigen CD34
T1 sequence (looked up): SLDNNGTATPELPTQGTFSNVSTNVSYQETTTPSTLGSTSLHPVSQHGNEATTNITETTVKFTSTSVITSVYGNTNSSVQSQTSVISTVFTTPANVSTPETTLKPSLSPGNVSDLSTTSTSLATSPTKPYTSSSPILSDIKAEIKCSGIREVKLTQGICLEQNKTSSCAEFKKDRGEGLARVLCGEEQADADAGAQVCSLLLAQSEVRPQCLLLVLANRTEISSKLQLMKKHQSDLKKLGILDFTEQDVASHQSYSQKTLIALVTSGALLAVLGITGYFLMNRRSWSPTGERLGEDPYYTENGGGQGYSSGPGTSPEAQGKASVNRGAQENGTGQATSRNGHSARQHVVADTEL
Procedure: A fixed subsaturating concentration of fluorescently labeled antibody FITC-4C8 and serial dilution of unlabeled purified antibodies were mixed respectively and then added into target KG-1a cells (1×10⁶/ml), and incubated at 4° C. for 60 min, the cells were washed twice with 1% FCS-PBS and examined by FCM using Cellquest software for analysis. Humanized anti-CD3 monoclonal antibody hu12F6 (preparation see to Li B H, Wang H, Dai J X, Ji J J, Qian W Z, Zhang D P, Hou S, Guo Y J. Construction and characterization of a humanized anti-human CD3 monoclonal antibody 12F6 with effective immunoregulation functions. Immunology 2005, 116(4):487-98) was used as control. Triplicate tubes were set for each concentration of the competitive antibody. The IC₅₀ values were calculated, with the maximum fluorescence intensity indicating the average fluorescence intensity obtained in the absence of competitive antibody.

[4] = biological target: T1, human CD34 (antigen on human myeloid …); assay: flow cytometry competition on KG-1a cells, competitor FITC-My10; single test
Procedure: (§1) Immunology. 2005, 116(4):487-98) was used as control. Triplicate tubes were set for each concentration of the competitive antibody. The IC₅₀ values were calculated, with the maximum fluorescence intensity indicating the average fluorescence intensity obtained in the absence of competitive antibody. Repeating this test for 3 times, and gaining statistical the result, see to Table 2.

[5] = biological target: T1, human CD34 (antigen on human myeloid …); assay: flow cytometry competition on KG-1a cells, competitor FITC-My10; mean of 3 tests
Procedure: as §1

B1: humanized antibody h4C8 (h4C8Hb/h4C8Lb) (antibody, human IgG1, V domains shown)
VH: QIQLVQSGSELKKPGASVKVSCKASGYTFTNYGMNWVRQAPGQGLKWMGWINTNTGEPKYAEEFKGRFALSLDTSVSTAYLQINSLKAEDTAVYFCARGYGNYARGAWLAYWGQGTLVTVSS
VL: DVLLTQSPLSLPVTLGQPASISCRSSQTIVHSNGNTYLEWFQQRPGQSPRLLIYQVSNRFSGVPDRFSGSGSGTDFTLKISRVEAEDVGVYYCFQGSHVPRTFGGGTKVEIKR
notes: CDR-grafted antibody with nine murine framework residues kept; also called humanized anti-CD34 antibody; hu4C8
IC50 [3]: 1.76 µg/mL | IC50 [4]: 1.11 µg/mL and 1.14 µg/mL and 1.02 µg/mL | IC50 [5]: 1.09 µg/mL

B3: chimeric antibody c4C8 (antibody, human IgG1, kappa, V domains shown)
VH: QIQLVQSGPELKKPGETVNISCKASGYTFTNYGMNWVKQAPGKGLKWMGWINTNTGEPKYAEEFKGRFALSLETSASTAYLQINNLKNEDTATYFCARGYGNYARGAWLAYWGQGTLVTVSA
VL: B1 VL with S7T, T14S, Q17D, P18Q, Q42L, R44K, R50K, V88L, V109L
notes: also called 4C8 chimeric antibody
IC50 [3]: 1.69 µg/mL

Further lines, results first:

IC50 [1]: 8.67 µg/mL and 9.23 µg/mL and 8.18 µg/mL | IC50 [2]: 8.69 µg/mL
Molecule: murine-derived monoclonal antibody My10 (anti-CD34)

IC50 [3]: 1.72 µg/mL
B2: anti-human CD34 monoclonal antibody 4C8 (antibody, V domains shown)
VH: B3 VH
VL: B1 VL with S7T, T14S, Q17D, P18Q, Q42L, R44K, R50K, V88L, V109L
notes: Mouse hybridoma antibody purified on Protein G; also called murine-derived monoclonal antibody 4C8; FITC-4C8
